Data published in the supplement of paper PMC12042874.
± gives the uncertainty stated by the source.

Experiment: amyloid nucleation score (Sup35N fusion, yeast selection) (log enrichment); library NNK3; higher = more nucleation; inactive = no reads after selection
Outline: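 Using DiMSum, nucleation scores were taken as the log enrichment of output over input reads, centred on the mode score of non-aggregating sequences. The input and output reads came from Illumina sequencing of plasmid inserts, with sequences under 100 input reads excluded. The yeast were psi-negative, expressed Sup35N fused to peptides of 20 random codons, were induced with 100 μM copper sulfate for 24 hours, and were grown 7 days at 30°C on medium lacking adenine and uracil.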

| Substance | amyloid nucleation score |
| --- | --- |
| HLRCFKMKFNSHFLVWGAGA | inactive |
| YFLRVNGSCANIDDHGLFSW | inactive |
| RYRTRRALHVYDEFVFEFKP | -0.057 ± 0.68 |
| TVPDRDFMFIRIRSHCYVVD | inactive |
| ISRNRQRSVIPGTTKLCMWV | inactive |
| CHSRTDKNSFC | inactive |
| LIHICHRVQPHMSCDCVAMW | inactive |
| MVYIKILHFVILMSMHFN | inactive |
| YINRKLRDACRRYVFGW | 0.05 ± 0.89 |
| VSTYGWAVRWGVFWGSMTYT | inactive |
| NLPNGMFKIHVDG | inactive |
| IPVLLPSMCINNKFMVSSWN | 1.39 ± 0.1 |
| YSFLGRNSIISCIR | inactive |
| IIMSLLIALP | 0.653 ± 0.18 |
| AVFRLSSTISECDLHACAPV | inactive |
| NMRRRYC | inactive |
| CLNNVLLASPPNCAGNL | inactive |
| LRTGCSYNSREGHNTLGRSS | inactive |
| TPSRLPQAACWQ | inactive |
| ETKSCWQL | inactive |
| SFLSNCSFPDRSMKAYFIYY | 0.939 ± 0.11 |
| NFFCSA | inactive |
| DTYMISNVAGNSRYALHGFV | inactive |
| KRVCCCKNSSSCE | inactive |

| Substance | amyloid nucleation score |
| --- | --- |
| RGYRAK | 1.34 ± 0.097 |
| SLAYCLLEWMES | -0.172 ± 0.48 |
| CQVWFTYYYLLGSTNDSMAR | inactive |
| SKLFFRNTLVSIISM | inactive |
| LNEYNINDFTLFSCTFIGNV | 2.73 ± 0.081 |
| VTSAPNKCFNLFYVNWDHNN | 0.784 ± 0.17 |
| RQLFWPTPINNFSVVNGILL | inactive |
| DCSFMPTLYLGPTTFFFWHL | 2.25 ± 0.064 |
| SLGVNLSISVGKYEYSLSLK | inactive |
| KQPCCNVFCC | 2.42 ± 0.069 |
| WVNKEDESVVWYIWFGIECC | inactive |
| LDVLKMGIVV | inactive |
| YLHAEYRMCKLIFKMEEFRD | 0.276 ± 0.46 |
| THGVR | inactive |
| GDNICQNVFTDGKVDAFFLT | inactive |
| KFYLILVA | inactive |
| SILRVGKERRSGYSSGEEY | inactive |
| IFLKNCLLWKTAGSFMNSIA | inactive |
| EQSTRKGNR | inactive |
| ALFKTYHLKGMFGKNWVLVV | inactive |
| LNRSSLYFF | inactive |
| ETMVIDWCSTVDRVR | inactive |
| VINRSLCPERFGKGAL | inactive |
| IFVVYFGISTIRNT | 1.32 ± 0.097 |

| Substance | amyloid nucleation score |
| --- | --- |
| TFKHTFNNVHCSGAFTGSQL | 0.161 ± 0.25 |
| RSEVAGFHLE | -0.807 ± 1.1 |
| YILGKSKSPFLLKCAVKI | inactive |
| LLVYFE | inactive |
| VVISYQTSMTNHGCLSFYQW | 2.13 ± 0.056 |
| LYHFANIFSFC | inactive |
| VCVNSLPYLICDIRVIIDRG | 1.11 ± 0.13 |
| QELQYLKAGSKF | inactive |
| LDSADTNDHPFSWYNGMLGT | inactive |
| YQMTNCSLFFTTLYSVNYDY | 2.81 ± 0.082 |
| VMSFVFNTSLWSMYIRIGSP | inactive |
| ALLCRMGRVRWPVSHEGNVC | inactive |
| YFFWDLEILMHPFFQTVRNK | inactive |
| LKYSDSSDI | 0.235 ± 0.26 |
| TSQGIYHVVCCSSSEFRTLG | 2.48 ± 0.055 |
| ACAGMDCKGYMFLWSFGRAW | inactive |
| TCSKVFQYG | inactive |
| YCMVKL | inactive |
| IFTLMINCLE | 0.809 ± 0.1 |
| MNLFFGFWLLLSAFVSHQVC | inactive |
| RSYKRYSSSYLIIWGWVNMC | inactive |
| GSGVNWFNIVVVS | inactive |
| WSRMTKSHKCRWDQLVTVHG | inactive |
| RCYALDFRWLILDVSYHGWG | inactive |

| Substance | amyloid nucleation score |
| --- | --- |
| TQRTGY | inactive |
| TLVGFRALKYIRWTCLAHRF | inactive |
| NSSNII | 2.56 ± 0.067 |
| NMTVSHWGLTMSRL | 1.26 ± 0.11 |
| IWKLHITLLSYRSILHVLHM | inactive |
| LHYLLTLARKSEWHYLLDIR | inactive |
| HILVKITR | 0.359 ± 0.71 |
| RGKYFGCYLSVYSHL | inactive |
| TDCELGLLRL | inactive |
| LDLNVIDRGWTPGTGTVQRM | inactive |
| LLSIRTSSCFCKRGSTKFED | 0.176 ± 0.33 |
| MIVHWMVHSRLVHKAVVGDG | inactive |
| ILLVWNSMLYYTLDTCVNCC | inactive |
| PYGICNLKF | inactive |
| GSRGYGWFMKTFAYPRNCKN | inactive |
| GTTLHYLSRREYGFTGRILF | inactive |
| SRIAFKVDFASCRARMCGVE | inactive |
| SYDVKSSTLW | inactive |
| KWMGKNTKSG | inactive |
| GLYKNK | inactive |
| VQNNFGVSNAGNGLCWGCIC | 2.65 ± 0.051 |
| YLLHK | inactive |
| KFLYRCINRLANSLIRELPI | inactive |
| RLSRWRRSNFSE | inactive |

| Substance | amyloid nucleation score |
| --- | --- |
| GVYPSGCYLNVRFWSLVHGA | inactive |
| FEIECNNGSGASTRLTSRIN | inactive |
| VFTVF | inactive |
| IRTNAGSLYFYWGTLFRISH | inactive |
| SQVVDW | inactive |
| LPPFAWPRMIPWWGRAKVIS | inactive |
| LNFVWNFNWLYWFLYGIERV | inactive |
| IALVMSIDVAVVLMYPSPQW | 0.381 ± 0.24 |
| FVSSYNIENV | inactive |
| CTDRRVRWGYGFKFRFGHGD | inactive |
| ACIYYHTASCKRCQQAIESE | inactive |
| VWSQIERLKHHPEFHMWC | inactive |
| ANLIYPRLEFCISMCTQMAE | inactive |
| AQRGIYWTTKVD | inactive |
| YVWMVSYMFLDFLDSTLALP | inactive |
| NTTHNVNV | inactive |
| FCATRTKVGLHGYASCEDCG | -0.249 ± 0.48 |
| YGEFDTLQW | inactive |
| CTLQYWGKIIPNERSRSRIV | inactive |
| MNYRFVISMLWVEVRGFGRQ | -0.892 ± 2.4 |
| LWEDFLMVKSVVMN | inactive |
| YRCFLNFIEMIDTCAGDLES | inactive |
| FRYPLNYN | inactive |
| HGSAWHSISEVVTIIRACGF | inactive |

| Substance | amyloid nucleation score |
| --- | --- |
| YDRPSVVRTWRTREKAVSGP | inactive |
| KGCNETWFVNPRGRYCWEFC | inactive |
| CNAYLAYARYIYTHGWPRSL | inactive |
| ARFFVVGLWCVSIKIVPFFD | inactive |
| HGIDKGLDVDETR | inactive |
| LCGCS | inactive |
| KKMLEKKI | inactive |
| GIMDLDEGLET | inactive |
| ATLYNSVRLC | inactive |
| RGVFLTEEASFIGELSLCSA | inactive |
| AQNSDHMSKATVH | inactive |
| VSNMGSMIVVVSVRCYM | 1.45 ± 0.094 |
| VYVVRANRFMRSPQLRVLFS | inactive |
| IYGWGRRFRTRR | inactive |
| NQCAS | inactive |
| GNCSWRVYGISSGFLRHGAV | inactive |
| RWPKIASCFSTHPWSGRYMW | inactive |
| CTSTLMEFSFSYEWSNGCCS | inactive |
| RVYLRGRIDFKGTTFGGFEK | 1.63 ± 0.059 |
| LNLGILACSGKRLSQSCRLT | inactive |
| YYFLLIGSW | inactive |
| YRKNLRHSLCRNWLYMDCHV | inactive |
| SSIVENGCNTERSPMIGCVS | -0.576 ± 0.88 |
| WQLAGYWLEWSIRPEGALDD | inactive |

| Substance | amyloid nucleation score |
| --- | --- |
| RFSYVVTRSG | inactive |
| DVLLARCYNCLSAFRLNSLC | inactive |
| YPCNFYWFRNILADTPIQYD | inactive |
| SFKATV | inactive |
| VDYLRVLWQAQFGNFELWSR | inactive |
| PFAEQRRL | inactive |
| FDIIVQITYHVWNMNVHF | 0.932 ± 0.1 |
| ACESCSFTSWRTYLCSKVRT | -0.172 ± 1.5 |
| YAWLCAASRYKTMVESLAEF | inactive |
| LFARRVGSYCVIVCQPVLWE | inactive |
| ESIVVRF | inactive |
| FFILFMRRLDW | 0.323 ± 0.22 |
| CDHYRISWNLKWLVVRMYY | inactive |
| WLLTNNLDCQCCMCLDWMWC | 2.81 ± 0.057 |
| YSRSTSSEMEAERGSAWLES | inactive |
| QDPLVT | inactive |
| ETESATQPVTVIGVSELIRL | inactive |
| LACSMLCVDPIADGHNFSYS | inactive |
